Test results taken from the supplement of paper PMC10567573.

B1: TRIM14 (parent)
chain: REQADSCREQLDIMNDLSNRVWSI

Variants of: B1
Assay: protein stability index of a GFP-peptide fusion (GPS, HEK-293T) (PSI 1-6); higher = more stable
Conditions: c terminus: a fixed tail appended
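Also: lentivirally expressed fusions sorted by FACS into six bins by GFP to DsRed ratio, PSI derived from sequencing read proportions per bin multiplied by bin number.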

Row | Variant | protein stability index
1 | REQADSCREQLDIMNDLSNRVWSC [I24C] | 2.53
2 | REQADSCREQLDIMNDLSNRVWSA [I24A] | 2.89
3 | REQADSCREQLDIMNDLSNYVWSI [R20Y] | 2.26
4 | REQADSCREQLDIMNDLSNTVWSI [R20T] | 2.19
5 | REQADSCREQLDIMNDLSNVVWSI [R20V] | 2.4
6 | REQADSCREQLDIMNDLSNIVWSI [R20I] | 2
7 | REQADSCREQLDIMNDLSNPVWSI [R20P] | 2.48
8 | REQADSCREQLDIMNDLSNNVWSI [R20N] | 2.91
9 | REQADSCREQLDIMNDLSNHVWSI [R20H] | 2.73
10 | REQADSCREQLDIMNDLSNSVWSI [R20S] | 2.41
11 | REQADSCREQLDIMNDLSNFVWSI [R20F] | 2.12
12 | REQADSCREQLDIMNDLSNAVWSI [R20A] | 2.8
13 | REQADSCREQLDIMNDLSNDVWSI [R20D] | 3.31
14 | REQADSCREQLDIMNDLSNGVWSI [R20G] | 2.77
15 | REQADSCREQLDIMNDLSNMVWSI [R20M] | 2.24
16 | REQADSCREQLDIMNDLSNWVWSI [R20W] | 1.64
17 | REQADSCREQLDIMNDLSNEVWSI [R20E] | 3.04
18 | REQADSCREQLDIMNDLSNQVWSI [R20Q] | 1.79
19 | REQADSCREQLDIMNDLSNKVWSI [R20K] | 2.78
20 | REQADSCREQLDIMNDLSNCVWSI [R20C] | 1.99
21 | REQADSCREQLDIMNDLSNLVWSI [R20L] | 1.29
22 | REQADSCREQLDIMNDLSNRVWEI [S23E] | 2.65
23 | REQADSCREQLDIMNDLSNRVWNI [S23N] | 2.71
24 | REQADSCREQLDIMNDLSNRVWWI [S23W] | 3.05

Row | Variant | protein stability index
25 | REQADSCREQLDIMNDLSNRVWPI [S23P] | 3.48
26 | REQADSCREQLDIMNDLSNRVWVI [S23V] | 3.3
27 | REQADSCREQLDIMNDLSNRVWII [S23I] | 2.75
28 | REQADSCREQLDIMNDLSNRVWLI [S23L] | 2.81
29 | REQADSCREQLDIMNDLSNRVWTI [S23T] | 1.84
30 | REQADSCREQLDIMNDLSNRVWCI [S23C] | 2.57
31 | REQADSCREQLDIMNDLSNRVWHI [S23H] | 2.07
32 | REQADSCREQLDIMNDLSNRVWFI [S23F] | 2.03
33 | REQADSCREQLDIMNDLSNRVWAI [S23A] | 2.09
34 | REQADSCREQLDIMNDLSNRVWRI [S23R] | 2.11
35 | REQADSCREQLDIMNDLSNRVWMI [S23M] | 2.22
36 | REQADSCREQLDIMNDLSNRVWDI [S23D] | 4.14
37 | REQADSCREQLDIMNDLSNRVWKI [S23K] | 2.09
38 | REQADSCREQLDIMNDLSNRVWQI [S23Q] | 2.68
39 | REQADSCREQLDIMNDLSNRVWYI [S23Y] | 1.92
40 | REQADSCREQLDIMNDLSNRVWGI [S23G] | 2.66
41 | REQADSCREQLDIMNDLSWRVWSI [N19W] | 2.12
42 | REQADSCREQLDIMNDLSFRVWSI [N19F] | 1.54
43 | REQADSCREQLDIMNDLSPRVWSI [N19P] | 2.95
44 | REQADSCREQLDIMNDLSSRVWSI [N19S] | 3.17
45 | REQADSCREQLDIMNDLSMRVWSI [N19M] | 2.53
46 | REQADSCREQLDIMNDLSTRVWSI [N19T] | 2.04
47 | REQADSCREQLDIMNDLSHRVWSI [N19H] | 2.26
48 | REQADSCREQLDIMNDLSRRVWSI [N19R] | 2.3

Row | Variant | protein stability index
49 | REQADSCREQLDIMNDLSERVWSI [N19E] | 2.98
50 | REQADSCREQLDIMNDLSLRVWSI [N19L] | 2.08
51 | REQADSCREQLDIMNDLSQRVWSI [N19Q] | 2.94
52 | REQADSCREQLDIMNDLSGRVWSI [N19G] | 2.61
53 | REQADSCREQLDIMNDLSYRVWSI [N19Y] | 2.08
54 | REQADSCREQLDIMNDLSIRVWSI [N19I] | 1.98
55 | REQADSCREQLDIMNDLSVRVWSI [N19V] | 2.39
56 | REQADSCREQLDIMNDLSKRVWSI [N19K] | 2.1
57 | REQADSCREQLDIMNDLSNRVSSI [W22S] | 4.21
58 | REQADSCREQLDIMNDLSNRVCSI [W22C] | 3.77
59 | REQADSCREQLDIMNDLSNRVTSI [W22T] | 4.13
60 | REQADSCREQLDIMNDLSNRVYSI [W22Y] | 2.78
61 | REQADSCREQLDIMNDLSNRVHSI [W22H] | 3.79
62 | REQADSCREQLDIMNDLSNRVDSI [W22D] | 4.56
63 | REQADSCREQLDIMNDLSNRVMSI [W22M] | 3.29
64 | REQADSCREQLDIMNDLSNRVRSI [W22R] | 4.28
65 | REQADSCREQLDIMNDLSNRVISI [W22I] | 2.79
66 | REQADSCREQLDIMNDLSNRVQSI [W22Q] | 4.12
67 | REQADSCREQLDIMNDLSNRVKSI [W22K] | 3.98
68 | REQADSCREQLDIMNDLSNRVPSI [W22P] | 4.32
69 | REQADSCREQLDIMNDLSNRVGSI [W22G] | 4.34
70 | REQADSCREQLDIMNDLSNRVESI [W22E] | 4.84
71 | REQADSCREQLDIMNDLSNRVLSI [W22L] | 3
72 | REQADSCREQLDIMNDLSNRVASI [W22A] | 3.85

Row | Variant | protein stability index
73 | REQADSCREQLDIMNDLSNRVVSI [W22V] | 3.14
74 | REQADSCREQLDIMNDLSNRVFSI [W22F] | 2.82
75 | REQADSCREQLDIMNDLSNRVNSI [W22N] | 3.72
76 | REQADSCREQLDIMNDLSNRSWSI [V21S] | 2.45
77 | REQADSCREQLDIMNDLSNRCWSI [V21C] | 2.41
78 | REQADSCREQLDIMNDLSNRDWSI [V21D] | 3.92
79 | REQADSCREQLDIMNDLSNRLWSI [V21L] | 2.88
80 | REQADSCREQLDIMNDLSNRIWSI [V21I] | 3.01
81 | REQADSCREQLDIMNDLSNRAWSI [V21A] | 2.96
82 | REQADSCREQLDIMNDLSNRKWSI [V21K] | 2.69
83 | REQADSCREQLDIMNDLSNRFWSI [V21F] | 3.06
84 | REQADSCREQLDIMNDLSNREWSI [V21E] | 3.58
85 | REQADSCREQLDIMNDLSNRTWSI [V21T] | 2.76
86 | REQADSCREQLDIMNDLSNRPWSI [V21P] | 3.01
87 | REQADSCREQLDIMNDLSNRMWSI [V21M] | 2.01
88 | REQADSCREQLDIMNDLSNRHWSI [V21H] | 2.69
89 | REQADSCREQLDIMNDLSNRGWSI [V21G] | 2.87
90 | REQADSCREQLDIMNDLSNRQWSI [V21Q] | 3.06
91 | REQADSCREQLDIMNDLSNRRWSI [V21R] | 2.18
92 | REQADSCREQLDIMNDLSNRWWSI [V21W] | 2.01
93 | REQADSCREQLDIMNDLSNRNWSI [V21N] | 2.97
94 | REQADSCREQLDIMNDLSNRYWSI [V21Y] | 3.19
